Data published in the RNAGym collection of RNA variant scans (doi:10.1093/molbev/msab373).

B1: Azoarcus group I ribozyme (parent)
chain: GUGCCUUGCGCCGGGAAACCACGCAAGGGAUGGUGUCAAAUUCGGCGAAACCUAAGCGCCCGCCCGGGCGUAUGGCAACGCCGAGCCAAGCUUCGGCGCCUGCGCCGAUGAAGGUGUAGAGACUAGACGGCACCCACCUAAGGCAAACGCUAUGGUGAAGGCAUAGUCCAGGGAGUGGCGAAAGUCACACAAACCGG

Variants of: B1
Assay: reverse-splicing fitness (ratio to wild type); higher = more active; in vitro selection; Mg2+ level not given
How it was run: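 An in vitro group I ribozyme library with randomized positions was T7-transcribed and gel-purified. In triplicate, 10 pmol RNA in EPPS pH 7.5 was reacted with 50 pmoles of a 30-nt RNA substrate for 1 h at 37 °C across several added MgCl2 levels (1–48 mM), then stopped with EDTA. Products were reverse transcribed from a substrate-complementary primer, PCR-amplified and sequenced (HiSeq 4000). Fitness is a variant's read proportion after selection over that before, normalised to wild type.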

Row | Variant | reverse-splicing fitness
1 | GUGCCUUGCGCCGGGAAACCACGCAAGGGAUGGUGUCAAAUUCGGCGAAACCUAAGCGCCCGCCCGGGCGUAUGGCAACGCUGAGCCAAGCUUCGGCGCCUGCGCCGAUGCAGGUGUAGCGACUAGACGGCACCCACCUAAGGCGAACGAUAUGGUGAAGGCAUAGUCCAGGGAGUGGCGAAAGUCACACAAACCGG | 0.01
2 | GUGCCUUGCGCCGGGAAACCACGCAAGGGAUGGUGUCAAAUUCGGCGAAACCUAAGCGCCCGCCCGGGCGUAUGGCAACGCUGAGCCAAGCUUCGGCGCCUGCGCCGAUGCAGGUGUAGCGACUAGACGGCACCCACCUAAGGCCAACGCUAUGGUGAAGGCAUAGUCUAGGGAGGGGCGAAAGUCACACAAACCGG | 0.00426
3 | GUGCCUUGCGCCGGGAAACCACGCAAGGGAUGGUGUCAAAUUCGGCGAAACCUAAGCGCCCGCCCGGGCGUAUGGCAACGCUGAGCCAAGCUUCGGCGCCUGCGCCGAUGCAGGUGUAGCGACUAGACGGCACCCACCUAAGGCCAACGCUAUGGUGAAGGCAUAGUCUAGGGAGAGGCGAAAGUCACACAAACCGG | 0.0162
4 | GUGCCUUGCGCCGGGAAACCACGCAAGGGAUGGUGUCAAAUUCGGCGAAACCUAAGCGCCCGCCCGGGCGUAUGGCAACGCUGAGCCAAGCUUCGGCGCCUGCGCCGAUGCAGGUGUAGCGACUAGACGGCACCCACCUAAGGCCAACGCUAUGGUGAAGGCAUAGUCUAGGGAGCGGCGAAAGUCACACAAACCGG | 0.0147
5 | GUGCCUUGCGCCGGGAAACCACGCAAGGGAUGGUGUCAAAUUCGGCGAAACCUAAGCGCCCGCCCGGGCGUAUGGCAACGCUGAGCCAAGCUUCGGCGCCUGCGCCGAUGCAGGUGUAGCGACUAGACGGCACCCACCUAAGGCGAACGAUAUGGUGAAGGCAUAGUCGAGGGAGAGGCGAAAGUCACACAAACCGG | 0.015
6 | GUGCCUUGCGCCGGGAAACCACGCAAGGGAUGGUGUCAAAUUCGGCGAAACCUAAGCGCCCGCCCGGGCGUAUGGCAACGCUGAGCCAAGCUUCGGCGCCUGCGCCGAUGCAGGUGUAGCGACUAGACGGCACCCACCUAAGGCGAACGCUAUGGUGAAGGCAUAGUCCAGGGAGUGGCGAAAGUCACACAAACCGG | 0.0265
7 | GUGCCUUGCGCCGGGAAACCACGCAAGGGAUGGUGUCAAAUUCGGCGAAACCUAAGCGCCCGCCCGGGCGUAUGGCAACGCUGAGCCAAGCUUCGGCGCCUGCGCCGAUGCAGGUGUAGCGACUAGACGGCACCCACCUAAGGCGAACGAUAUGGUGAAGGCAUAGUCAAGGGAGCGGCGAAAGUCACACAAACCGG | 0.0198
8 | GUGCCUUGCGCCGGGAAACCACGCAAGGGAUGGUGUCAAAUUCGGCGAAACCUAAGCGCCCGCCCGGGCGUAUGGCAACGCUGAGCCAAGCUUCGGCGCCUGCGCCGAUGCAGGUGUAGCGACUAGACGGCACCCACCUAAGGCGAACGAUAUGGUGAAGGCAUAGUCAAGGGAGGGGCGAAAGUCACACAAACCGG | 0.00718
9 | GUGCCUUGCGCCGGGAAACCACGCAAGGGAUGGUGUCAAAUUCGGCGAAACCUAAGCGCCCGCCCGGGCGUAUGGCAACGCUGAGCCAAGCUUCGGCGCCUGCGCCGAUGCAGGUGUAGCGACUAGACGGCACCCACCUAAGGCGAACGAUAUGGUGAAGGCAUAGUCAAGGGAGAGGCGAAAGUCACACAAACCGG | 0.0163
10 | GUGCCUUGCGCCGGGAAACCACGCAAGGGAUGGUGUCAAAUUCGGCGAAACCUAAGCGCCCGCCCGGGCGUAUGGCAACGCUGAGCCAAGCUUCGGCGCCUGCGCCGAUGCAGGUGUAGCGACUAGACGGCACCCACCUAAGGCCAACGCUAUGGUGAAGGCAUAGUCGAGGGAGCGGCGAAAGUCACACAAACCGG | 0.015
11 | GUGCCUUGCGCCGGGAAACCACGCAAGGGAUGGUGUCAAAUUCGGCGAAACCUAAGCGCCCGCCCGGGCGUAUGGCAACGCUGAGCCAAGCUUCGGCGCCUGCGCCGAUGCAGGUGUAGCGACUAGACGGCACCCACCUAAGGCCAACGCUAUGGUGAAGGCAUAGUCGAGGGAGAGGCGAAAGUCACACAAACCGG | 0.0195
12 | GUGCCUUGCGCCGGGAAACCACGCAAGGGAUGGUGUCAAAUUCGGCGAAACCUAAGCGCCCGCCCGGGCGUAUGGCAACGCUGAGCCAAGCUUCGGCGCCUGCGCCGAUGCAGGUGUAGCGACUAGACGGCACCCACCUAAGGCCAACGCUAUGGUGAAGGCAUAGUCGAGGGAGGGGCGAAAGUCACACAAACCGG | 0.00555
13 | GUGCCUUGCGCCGGGAAACCACGCAAGGGAUGGUGUCAAAUUCGGCGAAACCUAAGCGCCCGCCCGGGCGUAUGGCAACGCUGAGCCAAGCUUCGGCGCCUGCGCCGAUGCAGGUGUAGCGACUAGACGGCACCCACCUAAGGCCAACGCUAUGGUGAAGGCAUAGUCCAGGGAGAGGCGAAAGUCACACAAACCGG | 0.00981
14 | GUGCCUUGCGCCGGGAAACCACGCAAGGGAUGGUGUCAAAUUCGGCGAAACCUAAGCGCCCGCCCGGGCGUAUGGCAACGCUGAGCCAAGCUUCGGCGCCUGCGCCGAUGCAGGUGUAGCGACUAGACGGCACCCACCUAAGGCCAACGCUAUGGUGAAGGCAUAGUCCAGGGAGGGGCGAAAGUCACACAAACCGG | 0.00562
15 | GUGCCUUGCGCCGGGAAACCACGCAAGGGAUGGUGUCAAAUUCGGCGAAACCUAAGCGCCCGCCCGGGCGUAUGGCAACGCUGAGCCAAGCUUCGGCGCCUGCGCCGAUGCAGGUGUAGCGACUAGACGGCACCCACCUAAGGCCAACGCUAUGGUGAAGGCAUAGUCCAGGGAGCGGCGAAAGUCACACAAACCGG | 0.0155
